Results taken from the supplement of paper PMC12042874.
± gives the uncertainty stated by the source.

Assay: amyloid nucleation score (Sup35N fusion, yeast selection) (log enrichment); library NNK2; higher = more nucleation; inactive = no reads after selection
Summary of the method: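 Psi-negative yeast expressed Sup35N fused to peptides of 20 random codons. They were induced 24 hours with 100 μM copper sulfate, grown 7 days at 30°C without adenine and uracil, and their plasmid inserts from input and output were Illumina-sequenced. The nucleation score is the DiMSum log enrichment of output over input reads, centred on the mode score of non-aggregating sequences. Sequences with under 100 input reads were excluded.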

In order of falling amyloid nucleation score:
1. GYVFHYVSIQL  7.957 ± 0.027
2. RINIFLRITFHNLLQLNRSG  6.04 ± 0.081
3. TTVERWVVFRKVQMRYRIRL  5.396 ± 0.049
4. TSGVTWQLACSVK  4.2 ± 0.095
5. RSMYFGVQSLMYRSRLPKGS  4.01 ± 0.067
6. HIARCNNWNACLMSRRHNCW  3.6 ± 0.061
7. DQFSGNACSIIVLVSALACF  3.01 ± 0.17
8. KKTSEKLEGYNVNISVLRGY  2.59 ± 0.23
9. KAGLWYNCPAMYDGYLRLKA  1.98 ± 0.15
10. VAPTETRVDPIPSVGPVPGA  1.66 ± 0.34
11. MVLASAAKVMEVLNSKQFT  1.42 ± 0.13
12. CMLASSFMVVRSRLLSSRAM  1.14 ± 0.32
13. AYIVDTKVT  1.11 ± 0.68
14. LVSVVWTKCRRGQRGVLVAS  1.06 ± 0.38
15. SSLRLDIVRTVHYSQIPEDA  1.04 ± 0.33
16. ISQRSNASCVN  0.966 ± 0.48
17. LVVVPTTGRVADRQWVMRNG  0.86 ± 0.2
18. LTKVWLPCAFVVSSFDQYQH  0.764 ± 0.41
19. TGRITVRRGSHLSLWKSMRL  0.697 ± 0.27
20. WYERVWLAWSR  0.66 ± 0.57
21. YVDVGC  0.513 ± 0.52
22. VRWNIVKSCAVMDSNGIMWV  0.432 ± 0.33
23. CNDGMTTSDYWWCSARLDPY  0.345 ± 0.2
24. YHITSSLWVDDIHVLLNMGP  0.328 ± 0.42
25. SREVFDVLGKFFCSPQDRVV  0.294 ± 0.8
26. HLDLDPPM  0.284 ± 1.1
27. HTKMYRAAARMVGAGNDFDM  0.146 ± 0.46
28. IPITSGIRRNCSSVRKDLGC  0.123 ± 0.39
29. TYLGNLYIMRFRAVLREPLV  0.077 ± 0.8
30. DWNTWTSNFLALTGAWTGLG  0.062 ± 0.77
31. VPCRSPVSGASKRTYLLINV  0.045 ± 0.31
32. SIVLSDGLGS  0.044 ± 1.1
33. GDPDQVYSFR  0.034 ± 1.1
34. TSSQTHSR  -0.03 ± 0.63
35. LGDVYMWIFKKLLWVNHWDV  -0.033 ± 0.44
36. FYKGYACHITAQYNLCVDNA  -0.146 ± 1
37. EYNRTLWSCYHWFVHVPPTN  -0.171 ± 1
38. VKGGSRS  -0.186 ± 0.49
39. CKLTRGSPMSYSEVR  -0.188 ± 0.29
40. RMRCTIMLMTGKRTCYLMRE  -0.216 ± 0.41
41. ERRRYLALLQMSMCATGLCY  -0.219 ± 0.43
42. IHGVFCEFVRIIRNVGSAIR  -0.226 ± 0.35
43. IAHRVITMP  -0.277 ± 1.1
44. FSRICKAMYQKSGYKINGIN  -0.283 ± 1
45. FEAFLSMWIFAPECLRAHSV  -0.288 ± 1.1
46. YEDSGRRKLLNGP  -0.381 ± 1.1
47. SLISKEFVGLVGGET  -0.388 ± 0.25
48. KLQTLLQWFGLY  -0.392 ± 0.41
49. LKYCVH  -0.414 ± 0.61
50. IRWSVGSGKIRGSFLLLMDL  -0.432 ± 1.1
51. NSLANDTQIRKNCLSIV  -0.474 ± 1.1
52. HCGTHVYYGAIWV  -0.483 ± 0.27
53. SPLASYIAVLWGNVR  -0.515 ± 1.1
54. QNYRNSGVKLHTRRIISCNV  -0.526 ± 0.36
55. FSGSIVIAGGIVSMRDPGLR  -0.596 ± 0.79
56. YSDMSFAVALAVSWVQAGAW  -0.618 ± 0.63
57. WNSVIFCR  -0.704 ± 0.37
58. AITGGFSAFIRYYGVMYDVG  -0.736 ± 0.45
59. LFFCDPWPHLMWHLPRIVHL  -0.748 ± 0.42
60. RNTTKWKMMTLTFNCTRRKK  -0.766 ± 1
61. DLLHETML  -0.781 ± 1.1
62. EVDSVNVSLCVS  -0.796 ± 0.64
63. IDILTVICVPEIYNWFLMQY  -0.842 ± 0.35
64. CLGKSRYCISDWKFLSLWPN  -0.932 ± 0.55
65. NGTTWKYYSRMSVTCAGPSI  -0.952 ± 0.39
66. PWTRWGVSFAFKAVNKCVHV  -1 ± 0.76
67. ECVRTLFYKLMTFAWLELRS  -1.02 ± 0.76
68. IWGLIAYLDSFNNFALDRRK  -1.03 ± 0.42
69. WWYRLLWDKSCL  -1.06 ± 0.49
70. LWIYRVAYFGFLNYKFSVFL  -1.09 ± 0.42
71. SLFYPLFLMLGVAYEGSFSW  -1.1 ± 0.61
72. CFSLYSCKDSINDMLKRSQN  -1.12 ± 1.1
73. CMRGLVKAGMIMTVFDRLSY  -1.22 ± 1.1
74. GFPRKSTDDLNILLNL  -1.47 ± 0.78
75. DGDICLLRYFFLTMILELAI  -2.02 ± 0.78

For GLYNFLLSGQ, the amyloid nucleation score was “inactive”.
For RFHFSDWR, the amyloid nucleation score was “inactive”.
For SNMNNPRHLCAKLSKRQMSY, the amyloid nucleation score was “inactive”.
With CECVSSCVYSVILLGCTRSF the amyloid nucleation score was “inactive”.
With QIVAFY the amyloid nucleation score was “inactive”.
For SSMIMTGFLYTYYGVIRVVD, the amyloid nucleation score was “inactive”.
For QVKLFYRLRPSFLCVFPFNL, the amyloid nucleation score was “inactive”.
For FGWAL, the amyloid nucleation score was “inactive”.
With NDAYITSVVGFTRYMYNFMV the amyloid nucleation score was “inactive”.
